As usually defined, the IC50 is the concentration at which inhibition is half-maximal. A lower IC50 goes with higher potency.

The results in this text go back to patent US20220088180A1.

Some targets named below: HLA-B*18:01 (human); HLA-B*44:03 (human); HLA-B*07:02 (human); HLA-A*02:01 (human); HLA-B*51:01 (human); HLA-A*26:01 (human); HLA-A*01:01 (human); HLA-B*44:02 (human); HLA-B*15:01 (human).
Common to all, as to assay: radioligand competition, purified MHC
Background: Displacement assays read how much labelled ligand stays bound in the presence of the test substance.

Setting [1] is: remark: other sources report otherwise.

Like-named read-outs stand apart in the source and are kept apart here.

For the molecule ELPDEFVVVTV (modifications not checked) [… (SEQ ID NO: 8)], the half-inhibitory concentration (IC50) is 1.13 µM in the assay with HLA-B*18:01 (human); above 70 µM in the assay with HLA-B*44:03 (human); above 70 µM with HLA-B*07:02 (human); 0.0016 µM in the assay with HLA-A*02:01 (human); above 70 µM in the assay with HLA-B*51:01 (human); 0.072 µM with HLA-A*26:01 (human). Moreover, the IC50 in the assay with HLA-A*01:01 (human) is above 70 µM; with HLA-B*44:02 (human), above 70 µM; with HLA-B*15:01 (human), 35.1 µM.
With EEFEPSTQYEY (modifications not checked) [… (SEQ ID NO: 20)], the 50% inhibitory concentration (IC50) with HLA-B*18:01 (human) is 0.0011 µM; with HLA-B*44:03 (human), 0.00041 µM; with HLA-B*07:02 (human), above 70 µM; with HLA-A*02:01 (human), above 70 µM; with HLA-B*51:01 (human), above 70 µM; with HLA-A*26:01 (human) it was 18.8 µM. For the same molecule, the IC50 was above 70 µM in the assay with HLA-A*01:01 (human), 0.05 µM with HLA-B*44:02 (human) and 0.078 µM in the assay with HLA-B*15:01 (human).
FASEAARVV (modifications not checked) [… (SEQ ID NO: 17)]: the half-maximal inhibitory concentration (IC50) in the assay with HLA-B*18:01 (human) was 49.5 µM; in the assay with HLA-B*44:03 (human) it was above 70 µM; with HLA-B*07:02 (human), 8.55 µM; with HLA-A*02:01 (human), 0.495 µM; with HLA-B*51:01 (human) it was 0.207 µM; with HLA-A*26:01 (human), 0.734 µM. Besides, the IC50 was above 70 µM with HLA-A*01:01 (human), above 70 µM in the assay with HLA-B*44:02 (human) and 2.55 µM with HLA-B*15:01 (human).
Consider KRVDWTIEY (modifications not checked) [… (SEQ ID NO: 29)], for which the IC50 in the assay with HLA-B*18:01 (human) (setting [1]) was above 70 µM; with HLA-B*44:03 (human) (setting [1]), above 70 µM; with HLA-B*07:02 (human), above 70 µM; with HLA-A*02:01 (human) (setting [1]), above 70 µM; with HLA-B*51:01 (human) (setting [1]), 22.7 µM; in the assay with HLA-A*26:01 (human) (setting [1]), above 70 µM. For the same molecule, the IC50 in the assay with HLA-A*01:01 (human) (setting [1]) was above 70 µM; in the assay with HLA-B*44:02 (human) (setting [1]), above 70 µM; with HLA-B*15:01 (human) (setting [1]) it was 0.356 µM.
Consider FAVDAAKAY (modifications not checked) [… (SEQ ID NO: 28)], for which the IC50 in the assay with HLA-B*18:01 (human) is 35.9 µM; in the assay with HLA-B*44:03 (human), above 70 µM; with HLA-B*07:02 (human) it was above 70 µM; with HLA-A*02:01 (human) it was above 70 µM; in the assay with HLA-B*51:01 (human), above 70 µM; with HLA-A*26:01 (human) it was 0.0067 µM. Further, the half-inhibitory concentration (IC50) with HLA-A*01:01 (human) was above 70 µM; in the assay with HLA-B*44:02 (human), above 70 µM; with HLA-B*15:01 (human), 0.0027 µM.
With APRITFGGP (modifications not checked) [… (SEQ ID NO: 42)], the IC50 in the assay with HLA-B*18:01 (human) is above 70 µM; with HLA-B*44:03 (human), above 70 µM; with HLA-B*07:02 (human), 0.059 µM; with HLA-A*02:01 (human), 0.893 µM; with HLA-B*51:01 (human), above 70 µM; with HLA-A*26:01 (human), above 70 µM. In addition, the IC50 with HLA-A*01:01 (human), with HLA-B*44:02 (human) and with HLA-B*15:01 (human) was above 70 µM each time.
In the case of ELPDEFVVV (modifications not checked) [… (SEQ ID NO: 12)], the IC50 was above 70 µM with HLA-B*18:01 (human); above 70 µM with HLA-B*44:03 (human); above 70 µM with HLA-B*07:02 (human); 0.46 µM with HLA-A*02:01 (human); above 70 µM in the assay with HLA-B*51:01 (human); 6.86 µM with HLA-A*26:01 (human). In addition, the 50% inhibitory concentration (IC50) with HLA-A*01:01 (human), in the assay with HLA-B*44:02 (human) and in the assay with HLA-B*15:01 (human) was above 70 µM in each case.
KAFQLTPIAV (modifications not checked) [… (SEQ ID NO: 13)]: the IC50 is 3.87 µM with HLA-B*18:01 (human); 16.4 µM in the assay with HLA-B*44:03 (human); 8.6 µM in the assay with HLA-B*07:02 (human); 0.0078 µM with HLA-A*02:01 (human); 38.7 µM with HLA-B*51:01 (human); above 70 µM with HLA-A*26:01 (human). For the same molecule, the IC50 in the assay with HLA-A*01:01 (human) is above 70 µM; in the assay with HLA-B*44:02 (human), above 70 µM; with HLA-B*15:01 (human), 1.2 µM.
